Measurements taken from US20240209076A1 (KODIAK SCIENCES, published 2024).
Substitutions are numbered along the chain they refer to. Numbers in names are those of the source.

B1: Anti-IL-6 antibody, heavy chain S35H, G66D, Q99V / light chain WT (antibody, IgG1, V domains shown)
VH: EVQLVESGGGLVQPGGSLRLSCAASGFTFSPFAMHWVRQAPGKGLEWVAKISPGGSWTYYSDTVTDRFTFSLDTSKSTAYLQMNSLRAEDTAVYYCARVLWGYYALDIWGQGTLVTVSS
VL: DIQLTQSPSSLSASVGDRVTITCSASISVSYMYWYQQKPGKAPKLLIYDMSNLASGVPSRFSGSGSGTDFTLTISSLQPEDFATYYCMQWSGYPYTFGQGTKVEIK
notes: IgG1; variable domains only
B2: Anti-IL-6 antibody, heavy chain S35H, G66D, Q99T / light chain WT (antibody, IgG1, V domains shown)
VH: B1 VH with V99T
VL: B1 VL
notes: IgG1; variable domains only
B3: Anti-IL-6 antibody, heavy chain S35H, G66D, Q99T / light chain M32L, M50D, N52S, M88Q (antibody, IgG1, V domains shown)
VH: B1 VH with V99T
VL: B1 VL with M32L, M50D, N52S, M88Q
notes: IgG1; variable domains only; VL is variant III
B4: Anti-IL-6 antibody, heavy chain S35H, G66D, Q99Y / light chain WT (antibody, IgG1, V domains shown)
VH: B1 VH with V99Y
VL: B1 VL
notes: IgG1; variable domains only
B5: Anti-IL-6 antibody, heavy chain WT / light chain M32L, M50D, N52S, M88Q (antibody, IgG1, V domains shown)
VH: B1 VH with H35S, D66G, V99Q
VL: B1 VL with M32L, M50D, N52S, M88Q
notes: as for B3
B6: Anti-IL-6 antibody, heavy chain S35H, G66D, Q99Y / light chain M32L, M50D, N52S, M88Q (antibody, IgG1, V domains shown)
VH: B1 VH with V99Y
VL: B1 VL with M32L, M50D, N52S, M88Q
notes: as for B3
B7: Anti-IL-6 antibody, heavy chain S35H, G66D, Q99S / light chain M32L, M50D, N52S, M88Q (antibody, IgG1, V domains shown)
VH: B1 VH with V99S
VL: B1 VL with M32L, M50D, N52S, M88Q
notes: as for B3
B8: Anti-IL-6 antibody, heavy chain S35H, G66D, Q99V / light chain M32L, M50D, N52S, M88Q (antibody, IgG1, V domains shown)
VH: B1 VH
VL: B1 VL with M32L, M50D, N52S, M88Q
notes: as for B3
B9: Anti-IL-6 antibody, heavy chain S35H, G66D, Q99S / light chain WT (antibody, IgG1, V domains shown)
VH: B1 VH with V99S
VL: B1 VL
notes: IgG1; variable domains only
B10: anti-IL-6 antibody, heavy chain I51A, G66D / light chain M32L, M50D, N52S, M88Q (antibody, IgG1, V domains shown)
VH: B1 VH with H35S, I51A, V99Q
VL: B1 VL with M32L, M50D, N52S, M88Q
notes: Full IgG1 (Expi293); VL = variant III
B11: anti-IL-6 antibody, heavy chain I51D, G66D / light chain M32L, M50D, N52S, M88Q (antibody, IgG1, V domains shown)
VH: B1 VH with H35S, I51D, V99Q
VL: B1 VL with M32L, M50D, N52S, M88Q
notes: as for B10
B12: anti-IL-6 antibody, heavy chain I51G, G66D / light chain M32L, M50D, N52S, M88Q (antibody, IgG1, V domains shown)
VH: B1 VH with H35S, I51G, V99Q
VL: B1 VL with M32L, M50D, N52S, M88Q
notes: as for B10
B13: anti-IL-6 antibody, heavy chain I51L, G66D / light chain M32L, M50D, N52S, M88Q (antibody, IgG1, V domains shown)
VH: B1 VH with H35S, I51L, V99Q
VL: B1 VL with M32L, M50D, N52S, M88Q
notes: as for B10
B14: anti-IL-6 antibody, heavy chain I51F, G66D / light chain M32L, M50D, N52S, M88Q (antibody, IgG1, V domains shown)
VH: B1 VH with H35S, I51F, V99Q
VL: B1 VL with M32L, M50D, N52S, M88Q
notes: as for B10
B15: anti-IL-6 antibody, heavy chain I51H, G66D / light chain M32L, M50D, N52S, M88Q (antibody, IgG1, V domains shown)
VH: B1 VH with H35S, I51H, V99Q
VL: B1 VL with M32L, M50D, N52S, M88Q
notes: as for B10
B16: anti-IL-6 antibody, heavy chain S35K, G66D / light chain M32L, M50D, N52S, M88Q (antibody, IgG1, V domains shown)
VH: B1 VH with H35K, V99Q
VL: B1 VL with M32L, M50D, N52S, M88Q
notes: as for B10
B17: anti-IL-6 antibody, heavy chain I51T, G66D / light chain M32L, M50D, N52S, M88Q (antibody, IgG1, V domains shown)
VH: B1 VH with H35S, I51T, V99Q
VL: B1 VL with M32L, M50D, N52S, M88Q
notes: as for B10
B18: anti-IL-6 antibody, heavy chain I51V, G66D / light chain M32L, M50D, N52S, M88Q (antibody, IgG1, V domains shown)
VH: B1 VH with H35S, I51V, V99Q
VL: B1 VL with M32L, M50D, N52S, M88Q
notes: as for B10
B19: anti-IL-6 antibody, heavy chain I51K, G66D / light chain M32L, M50D, N52S, M88Q (antibody, IgG1, V domains shown)
VH: B1 VH with H35S, I51K, V99Q
VL: B1 VL with M32L, M50D, N52S, M88Q
notes: as for B10
B20: anti-IL-6 antibody, heavy chain I51Q, G66D / light chain M32L, M50D, N52S, M88Q (antibody, IgG1, V domains shown)
VH: B1 VH with H35S, I51Q, V99Q
VL: B1 VL with M32L, M50D, N52S, M88Q
notes: as for B10
B21: anti-IL-6 antibody, heavy chain I51S, G66D / light chain M32L, M50D, N52S, M88Q (antibody, IgG1, V domains shown)
VH: B1 VH with H35S, I51S, V99Q
VL: B1 VL with M32L, M50D, N52S, M88Q
notes: as for B10
B22: anti-IL-6 antibody, heavy chain S35D, G66D / light chain M32L, M50D, N52S, M88Q (antibody, IgG1, V domains shown)
VH: B1 VH with H35D, V99Q
VL: B1 VL with M32L, M50D, N52S, M88Q
notes: as for B10
B23: anti-IL-6 antibody, heavy chain S35E, G66D / light chain M32L, M50D, N52S, M88Q (antibody, IgG1, V domains shown)
VH: B1 VH with H35E, V99Q
VL: B1 VL with M32L, M50D, N52S, M88Q
notes: as for B10
B24: anti-IL-6 antibody, heavy chain I51E, G66D / light chain M32L, M50D, N52S, M88Q (antibody, IgG1, V domains shown)
VH: B1 VH with H35S, I51E, V99Q
VL: B1 VL with M32L, M50D, N52S, M88Q
notes: as for B10
B25: anti-IL-6 antibody, heavy chain S35F, G66D / light chain M32L, M50D, N52S, M88Q (antibody, IgG1, V domains shown)
VH: B1 VH with H35F, V99Q
VL: B1 VL with M32L, M50D, N52S, M88Q
notes: as for B10
B26: anti-IL-6 antibody, heavy chain I51R, G66D / light chain M32L, M50D, N52S, M88Q (antibody, IgG1, V domains shown)
VH: B1 VH with H35S, I51R, V99Q
VL: B1 VL with M32L, M50D, N52S, M88Q
notes: as for B10
B27: anti-IL-6 antibody, heavy chain I51W, G66D / light chain M32L, M50D, N52S, M88Q (antibody, IgG1, V domains shown)
VH: B1 VH with H35S, I51W, V99Q
VL: B1 VL with M32L, M50D, N52S, M88Q
notes: as for B10
B28: anti-IL-6 antibody, heavy chain S35G, G66D / light chain M32L, M50D, N52S, M88Q (antibody, IgG1, V domains shown)
VH: B1 VH with H35G, V99Q
VL: B1 VL with M32L, M50D, N52S, M88Q
notes: as for B10
B29: anti-IL-6 antibody, heavy chain S35A, G66D / light chain M32L, M50D, N52S, M88Q (antibody, IgG1, V domains shown)
VH: B1 VH with H35A, V99Q
VL: B1 VL with M32L, M50D, N52S, M88Q
notes: as for B10
B30: anti-IL-6 antibody, heavy chain I51Y, G66D / light chain M32L, M50D, N52S, M88Q (antibody, IgG1, V domains shown)
VH: B1 VH with H35S, I51Y, V99Q
VL: B1 VL with M32L, M50D, N52S, M88Q
notes: as for B10
B31: anti-IL-6 antibody, heavy chain S35I, G66D / light chain M32L, M50D, N52S, M88Q (antibody, IgG1, V domains shown)
VH: B1 VH with H35I, V99Q
VL: B1 VL with M32L, M50D, N52S, M88Q
notes: as for B10

biological target: human IL-6 (human, UniProt P05231 30-212); test: SPR Biacore, supernatant, Protein A capture, 37 C
In short: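 Antibodies from 1:20-diluted culture supernatant in HBS-EP+ were captured on a Protein A chip at 37 C, with 10 mM glycine pH 1.7 regeneration. Sensorgrams were double-reference subtracted and fitted to a 1:1 Langmuir model.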
Target sequence in this assay (P05231 30-212 limits assumed): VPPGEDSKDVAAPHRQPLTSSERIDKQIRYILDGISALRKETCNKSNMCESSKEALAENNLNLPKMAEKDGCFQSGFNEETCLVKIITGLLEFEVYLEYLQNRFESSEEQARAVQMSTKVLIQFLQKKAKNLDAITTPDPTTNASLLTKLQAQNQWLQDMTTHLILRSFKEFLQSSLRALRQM

| Binder | Kd | koff | kon |
| --- | --- | --- | --- |
| B1 | 4.8 nM | 0.00431 s⁻¹ | 898000 M⁻¹ s⁻¹ |
| B2 | 1.31 nM | 0.00222 s⁻¹ | 1.69e+06 M⁻¹ s⁻¹ |
| B3 | 6.51 nM | 0.049 s⁻¹ | 7.52e+06 M⁻¹ s⁻¹ |
| B4 | 0.825 nM | 0.00215 s⁻¹ | 2.6e+06 M⁻¹ s⁻¹ |
| B5 | 0.686 nM | 0.000631 s⁻¹ | 920000 M⁻¹ s⁻¹ |
| B6 | 2.51 nM | 0.00547 s⁻¹ | 2.17e+06 M⁻¹ s⁻¹ |
| B7 | 7.66 nM | 0.00154 s⁻¹ | 201000 M⁻¹ s⁻¹ |
| B8 | 1.76 nM | 0.0014 s⁻¹ | 794000 M⁻¹ s⁻¹ |
| B9 | 6.48 nM | 0.0257 s⁻¹ | 3.96e+06 M⁻¹ s⁻¹ |

biological target: T1, human IL-6 (human, UniProt P05231 30-212); test: SPR Biacore, supernatant Ab on Protein A chip, 37 C
T1 construct: IL-6 flowed over captured antibodies
Description: Antibodies were captured on a Protein A chip (GE) by injecting 1:20 cell supernatant dilutions at 10 μL/min for 60 seconds. […] The sensor chip was regenerated by a 60 seconds injection of 10 mM Glycine pH 1.7 at the flow rate of 50 μL/min. […] For this setup, 1 μg/mL of purified antibody was injected over a Protein A chip at 10 μL/min for 25 seconds. […] The sensor chip was regenerated by a 60 seconds injection of 10 mM Glycine pH 1.7 at flow rate of 50 μL/min. Data analysis for supernatant and purified samples were performed using BIAevaluation software (GE). All sensorgrams were double reference subtracted and fit using a 1:1 Langmuir binding model.
T1 sequence (P05231 30-212 limits assumed): as above

| Binder | Kd | koff | kon |
| --- | --- | --- | --- |
| B10 | 0.559 nM | 0.000899 s⁻¹ | 1.61e+06 M⁻¹ s⁻¹ |
| B11 | 9.58 nM | 0.00799 s⁻¹ | 834000 M⁻¹ s⁻¹ |
| B12 | 0.652 nM | 0.000912 s⁻¹ | 1.4e+06 M⁻¹ s⁻¹ |
| B13 | 0.98 nM | 0.00161 s⁻¹ | 1.64e+06 M⁻¹ s⁻¹ |
| B14 | 4.45 nM | 0.00611 s⁻¹ | 1.37e+06 M⁻¹ s⁻¹ |
| B15 | 0.5 nM | 0.00104 s⁻¹ | 2.07e+06 M⁻¹ s⁻¹ |
| B16 | 2.64 nM | 0.00346 s⁻¹ | 1.31e+06 M⁻¹ s⁻¹ |
| B17 | 0.233 nM | 0.000478 s⁻¹ | 2.05e+06 M⁻¹ s⁻¹ |
| B18 | 1.11 nM | 0.00195 s⁻¹ | 1.76e+06 M⁻¹ s⁻¹ |
| B19 | 0.349 nM | 0.000601 s⁻¹ | 1.72e+06 M⁻¹ s⁻¹ |
| B20 | 0.575 nM | 0.00113 s⁻¹ | 1.96e+06 M⁻¹ s⁻¹ |
| B21 | 0.217 nM | 0.000401 s⁻¹ | 1.85e+06 M⁻¹ s⁻¹ |
| B22 | 0.753 nM | 0.00177 s⁻¹ | 2.35e+06 M⁻¹ s⁻¹ |
| B23 | 0.867 nM | 0.00189 s⁻¹ | 2.18e+06 M⁻¹ s⁻¹ |
| B24 | 2.14 nM | 0.00196 s⁻¹ | 914000 M⁻¹ s⁻¹ |
| B25 | 3.17 nM | 0.00484 s⁻¹ | 1.53e+06 M⁻¹ s⁻¹ |
| B26 | 0.0357 nM | 5.8e-05 s⁻¹ | 1.63e+06 M⁻¹ s⁻¹ |
| B27 | 4.84 nM | 0.00383 s⁻¹ | 791000 M⁻¹ s⁻¹ |
| B28 | 0.609 nM | 0.000781 s⁻¹ | 1.28e+06 M⁻¹ s⁻¹ |
| B29 | 0.657 nM | 0.00126 s⁻¹ | 1.93e+06 M⁻¹ s⁻¹ |
| B30 | 4.04 nM | 0.0247 s⁻¹ | 6.1e+06 M⁻¹ s⁻¹ |
| B31 | 1.62 nM | 0.00147 s⁻¹ | 904000 M⁻¹ s⁻¹ |
